Source: IntAct's records for PubMed 7651520

Each substance was assayed against ste20_yeast STE20 (UniProt Q03497).
ste20_yeast STE20, sequence (Q03497 whole entry): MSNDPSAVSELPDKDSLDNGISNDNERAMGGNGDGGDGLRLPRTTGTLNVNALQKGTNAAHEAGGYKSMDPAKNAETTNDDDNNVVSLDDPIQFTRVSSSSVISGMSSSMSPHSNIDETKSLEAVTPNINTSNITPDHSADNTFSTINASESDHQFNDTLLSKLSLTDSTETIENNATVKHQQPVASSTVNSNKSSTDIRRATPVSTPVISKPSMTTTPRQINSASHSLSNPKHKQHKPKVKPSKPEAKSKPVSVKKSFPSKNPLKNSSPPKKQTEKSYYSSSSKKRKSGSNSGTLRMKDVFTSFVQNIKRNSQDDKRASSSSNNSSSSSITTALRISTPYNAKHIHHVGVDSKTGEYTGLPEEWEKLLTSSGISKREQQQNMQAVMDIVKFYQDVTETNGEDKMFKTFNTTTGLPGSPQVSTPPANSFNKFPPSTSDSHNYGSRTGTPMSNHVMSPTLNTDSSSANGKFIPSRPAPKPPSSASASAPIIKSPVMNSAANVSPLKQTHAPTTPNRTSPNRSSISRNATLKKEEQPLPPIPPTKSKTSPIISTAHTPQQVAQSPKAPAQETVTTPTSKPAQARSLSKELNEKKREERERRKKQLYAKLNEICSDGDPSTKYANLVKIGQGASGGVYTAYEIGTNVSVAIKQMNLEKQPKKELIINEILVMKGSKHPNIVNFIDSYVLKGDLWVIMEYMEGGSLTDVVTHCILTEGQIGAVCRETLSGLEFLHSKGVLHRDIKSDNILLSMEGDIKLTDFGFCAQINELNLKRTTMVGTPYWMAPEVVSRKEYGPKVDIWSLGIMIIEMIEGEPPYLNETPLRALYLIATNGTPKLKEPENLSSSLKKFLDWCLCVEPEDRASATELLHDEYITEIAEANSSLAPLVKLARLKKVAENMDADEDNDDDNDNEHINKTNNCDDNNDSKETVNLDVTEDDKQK

Cell division control protein 42 (Saccharomyces cerevisiae), P19073 C188S, sequence (P19073 whole entry C188S): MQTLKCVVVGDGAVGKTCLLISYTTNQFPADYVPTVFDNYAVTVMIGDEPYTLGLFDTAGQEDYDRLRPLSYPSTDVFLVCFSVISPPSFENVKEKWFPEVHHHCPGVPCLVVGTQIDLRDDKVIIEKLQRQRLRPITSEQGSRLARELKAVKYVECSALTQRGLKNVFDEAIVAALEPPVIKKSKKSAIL
Cell division control protein 42 (Saccharomyces cerevisiae), P19073 Q61L;C188S, sequence (P19073 whole entry Q61L/C188S): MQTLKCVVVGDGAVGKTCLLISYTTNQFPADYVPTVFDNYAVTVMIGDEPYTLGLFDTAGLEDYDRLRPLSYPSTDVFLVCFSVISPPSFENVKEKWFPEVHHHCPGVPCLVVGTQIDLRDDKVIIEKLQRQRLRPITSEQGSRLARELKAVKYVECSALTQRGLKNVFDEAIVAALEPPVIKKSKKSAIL
Cell division control protein 42 (Saccharomyces cerevisiae), P19073 G12V;C188S, sequence (P19073 whole entry G12V/C188S): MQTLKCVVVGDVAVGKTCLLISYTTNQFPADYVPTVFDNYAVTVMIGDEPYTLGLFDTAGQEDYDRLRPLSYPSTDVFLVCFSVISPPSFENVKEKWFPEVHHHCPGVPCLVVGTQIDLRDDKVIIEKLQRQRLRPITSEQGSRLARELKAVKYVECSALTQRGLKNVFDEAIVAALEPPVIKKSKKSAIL

Substance | effect of a mutation on the interaction
Cell division control protein 42 (Saccharomyces cerevisiae), P19073 C188S | increasing interaction
Cell division control protein 42 (Saccharomyces cerevisiae), P19073 G12V;C188S | increasing interaction
Cell division control protein 42 (Saccharomyces cerevisiae), P19073 Q61L;C188S | increasing interaction
